Our source for the stoichiometry N values is article PMC3544922.

Several values for one entry are separate records, joined by “and”; a condition that tells them apart may be missing. Equal values may be shown once.

This experiment addresses recombinant HIV-1 integrase (HIV-1). Description: atomic force microscopy; 50 ng integrase incubated with 10 ng target DNA xkyk in binding buffer with MnCl2 at 30°C, dialysed against PBS 48 h at 4°C, digested with ScaI, adsorbed on mica with spermidine, tapping mode in air; size and volume of integrase bound on DNA (n = 123).

A word on the stoichiometry N: it is a count of units in the complex or per binding partner.

Regarding recombinant HIV-1 integrase (enzyme), the stoichiometry N is 2 and 4.
